Experimental data: patent publication US20120021923

With prostate-specific antigen (PSA) the “turnover rate by PSA” value (SKLQ-aluc) was “SKLQ on the other had appears to have a very slow turnover compared to KGISSQY and to be highly specific to PSA”, the “Km (PSA-A buffer)” value (Ac-KGISSQY-AFC) was “the Km value is estimated to be 1.73 mM” and the “Km (PSA-B buffer)” value (Ac-KGISSQY-AFC) was “the Km value is estimated to be 0.47 mM”. For the same substance, the “Vmax (PSA-A buffer)” value (Ac-KGISSQY-AFC) was “the Vmax is estimated to be 3.7 RLU/sec”, the “Vmax (PSA-B buffer)” value (Ac-KGISSQY-AFC) was “the Vmax is estimated to be 2.33 RLU/sec” and the “turnover rate by PSA” value (Ac-KGISSQY-AFC) was “the substrate of KGISSQY has a much higher turnover rate by PSA as compared to SKLQ”.
